Assay results from the supplement of paper PMC10065799, “High-throughput profiling of sequence recognition by tyrosine kinases and SH2 domains using bacterial peptide display” (eLife, 2023).

tested on: AncSZ; assay: phosphorylation enrichment, bacterial display (enrichment ratio); higher = better substrate or ligand; peptides without Tyr show the background
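Note: 11-residue human phosphosite peptides and single-mutation variants displayed on the E. coli surface, counted by deep sequencing, each peptide's frequency after selection divided by its frequency in the unselected input library; frequency after pTyr selection over input frequency; kinase dosed for 20-30% of maximal phosphorylation in three min.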

Row | Sequence | phosphorylation enrichment
1 | ILTFKYLQKPM [KIT_Y547_YF] | 1.19
2 | MSSLFYANTLF [HOXB7_Y6_YF] | 0.906
3 | KKRSSYGNSSD [SELENOK_Y52_R50S] | 0.57
4 | KLIETYSSKNF [PLP1_Y50_F51S_YF] | 0.654
5 | SHSMRYFFTAV [HLA-C_Y31_D33F] | 1.13
6 | ELELLYLDRNS [NYX_Y284] | 0.934
7 | IIGNGYYFRVF [MYBPC3_Y1135] | 1.08
8 | PQGVGYPPQPQ [EP300_Y2219_Q2223P] | 0.972
9 | LTDLRYKVSGP | 0.644
10 | KTDVHYRSLGG [DYSF_Y1858] | 0.468
11 | GGQVFYNSEFG [FLT4_Y1333_YF] | 1.09
12 | VDFQPYRKHKF [TEX37_Y28_YF] | 0.553
13 | SLIDGYYRLTA [JAK2_Y372] | 0.92
14 | DVVKDYAFVHM [RBM14_Y114] | 0.929
15 | NDEDIYKGLPD [VAV3_Y141] | 1.23
16 | TLQNMYGCDVG [HLA-B_Y123_S121N] | 0.886
17 | FENGEYIIRQG [PRKG1_Y247_YF] | 1.01
18 | QAIDEYEKWLE [MAP9_Y603_N601D] | 1.5
19 | ERWLKYFPNEQ [HS3ST5_Y244_I247N] | 1.09
20 | MDNQEYKDAYT [BRDT_Y331_K336T] | 1.33
21 | HRERPYGGGGG [FUS_Y526_R521H] | 0.487
22 | AVAFLYYKSIG [ADGRL4_Y301_V300L] | 1.09
23 | SWDKRYCEAGC [ITGA2B_Y197_F202C] | 0.859
24 | RLAKRYLIWEC [SCN5A_Y694_Q692K] | 1.15
25 | YRIDHYLGKEM [G6PD_Y202] | 0.716
26 | SVAVPYEPPEV [TP53_Y220_V217A] | 1.31
27 | ALAHEYHGGGG [HBB_Y146_K145E] | 0.469
28 | SSVPDYLAAVD [GLB1_Y154_D151V] | 1.63
29 | PFFTSYPPSPD [GDAP2_Y491_YF] | 0.907

target: EPHB1 (UniProt P54762); assay: as above
Sequence (P54762 whole entry, looked up): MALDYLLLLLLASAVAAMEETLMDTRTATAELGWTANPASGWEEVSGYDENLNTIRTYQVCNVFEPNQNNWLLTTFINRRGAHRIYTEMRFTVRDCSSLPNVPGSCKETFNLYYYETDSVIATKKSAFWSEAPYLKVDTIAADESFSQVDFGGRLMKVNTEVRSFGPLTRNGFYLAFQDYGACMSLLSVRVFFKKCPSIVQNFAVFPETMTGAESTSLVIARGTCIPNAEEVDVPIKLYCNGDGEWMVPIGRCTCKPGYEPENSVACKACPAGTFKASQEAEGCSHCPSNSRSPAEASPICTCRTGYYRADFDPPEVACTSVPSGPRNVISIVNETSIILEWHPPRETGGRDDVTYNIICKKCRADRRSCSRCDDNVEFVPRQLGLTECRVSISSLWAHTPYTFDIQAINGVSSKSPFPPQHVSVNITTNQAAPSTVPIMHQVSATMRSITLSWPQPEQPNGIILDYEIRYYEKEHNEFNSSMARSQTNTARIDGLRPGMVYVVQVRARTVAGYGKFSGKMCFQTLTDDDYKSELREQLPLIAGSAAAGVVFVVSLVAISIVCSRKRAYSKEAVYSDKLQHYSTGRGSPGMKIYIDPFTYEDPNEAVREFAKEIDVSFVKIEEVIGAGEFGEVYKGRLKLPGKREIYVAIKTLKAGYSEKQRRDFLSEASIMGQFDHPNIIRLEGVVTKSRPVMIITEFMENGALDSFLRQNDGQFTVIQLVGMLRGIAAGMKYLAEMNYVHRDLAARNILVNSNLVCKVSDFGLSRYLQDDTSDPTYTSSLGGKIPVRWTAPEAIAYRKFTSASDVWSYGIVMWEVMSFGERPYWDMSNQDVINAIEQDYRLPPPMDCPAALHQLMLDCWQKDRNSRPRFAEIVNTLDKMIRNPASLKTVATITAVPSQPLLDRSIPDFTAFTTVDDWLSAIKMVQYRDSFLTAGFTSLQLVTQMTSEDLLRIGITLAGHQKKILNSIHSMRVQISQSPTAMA

Row | Sequence | phosphorylation enrichment
30 | ILTFKYLQKPM [KIT_Y547_YF] | 0.792
31 | MSSLFYANTLF [HOXB7_Y6_YF] | 1.14
32 | KKRSSYGNSSD [SELENOK_Y52_R50S] | 0.4
33 | KLIETYSSKNF [PLP1_Y50_F51S_YF] | 0.769
34 | SHSMRYFFTAV [HLA-C_Y31_D33F] | 0.595
35 | ELELLYLDRNS [NYX_Y284] | 0.518
36 | IIGNGYYFRVF [MYBPC3_Y1135] | 0.628
37 | PQGVGYPPQPQ [EP300_Y2219_Q2223P] | 0.503
38 | LTDLRYKVSGP | 0.518
39 | KTDVHYRSLGG [DYSF_Y1858] | 0.329
40 | GGQVFYNSEFG [FLT4_Y1333_YF] | 0.619
41 | VDFQPYRKHKF [TEX37_Y28_YF] | 0.403
42 | SLIDGYYRLTA [JAK2_Y372] | 0.457
43 | DVVKDYAFVHM [RBM14_Y114] | 7.47
44 | NDEDIYKGLPD [VAV3_Y141] | 0.727
45 | TLQNMYGCDVG [HLA-B_Y123_S121N] | 0.702
46 | FENGEYIIRQG [PRKG1_Y247_YF] | 0.543
47 | QAIDEYEKWLE [MAP9_Y603_N601D] | 1.06
48 | ERWLKYFPNEQ [HS3ST5_Y244_I247N] | 0.664
49 | MDNQEYKDAYT [BRDT_Y331_K336T] | 0.598
50 | HRERPYGGGGG [FUS_Y526_R521H] | 0.483
51 | AVAFLYYKSIG [ADGRL4_Y301_V300L] | 0.555
52 | SWDKRYCEAGC [ITGA2B_Y197_F202C] | 0.446
53 | RLAKRYLIWEC [SCN5A_Y694_Q692K] | 0.607
54 | YRIDHYLGKEM [G6PD_Y202] | 0.467
55 | SVAVPYEPPEV [TP53_Y220_V217A] | 0.614
56 | ALAHEYHGGGG [HBB_Y146_K145E] | 0.397
57 | SSVPDYLAAVD [GLB1_Y154_D151V] | 0.631
58 | PFFTSYPPSPD [GDAP2_Y491_YF] | 0.438

target: EPHB2 (UniProt P29323); assay: as above
Sequence (P29323 whole entry, looked up): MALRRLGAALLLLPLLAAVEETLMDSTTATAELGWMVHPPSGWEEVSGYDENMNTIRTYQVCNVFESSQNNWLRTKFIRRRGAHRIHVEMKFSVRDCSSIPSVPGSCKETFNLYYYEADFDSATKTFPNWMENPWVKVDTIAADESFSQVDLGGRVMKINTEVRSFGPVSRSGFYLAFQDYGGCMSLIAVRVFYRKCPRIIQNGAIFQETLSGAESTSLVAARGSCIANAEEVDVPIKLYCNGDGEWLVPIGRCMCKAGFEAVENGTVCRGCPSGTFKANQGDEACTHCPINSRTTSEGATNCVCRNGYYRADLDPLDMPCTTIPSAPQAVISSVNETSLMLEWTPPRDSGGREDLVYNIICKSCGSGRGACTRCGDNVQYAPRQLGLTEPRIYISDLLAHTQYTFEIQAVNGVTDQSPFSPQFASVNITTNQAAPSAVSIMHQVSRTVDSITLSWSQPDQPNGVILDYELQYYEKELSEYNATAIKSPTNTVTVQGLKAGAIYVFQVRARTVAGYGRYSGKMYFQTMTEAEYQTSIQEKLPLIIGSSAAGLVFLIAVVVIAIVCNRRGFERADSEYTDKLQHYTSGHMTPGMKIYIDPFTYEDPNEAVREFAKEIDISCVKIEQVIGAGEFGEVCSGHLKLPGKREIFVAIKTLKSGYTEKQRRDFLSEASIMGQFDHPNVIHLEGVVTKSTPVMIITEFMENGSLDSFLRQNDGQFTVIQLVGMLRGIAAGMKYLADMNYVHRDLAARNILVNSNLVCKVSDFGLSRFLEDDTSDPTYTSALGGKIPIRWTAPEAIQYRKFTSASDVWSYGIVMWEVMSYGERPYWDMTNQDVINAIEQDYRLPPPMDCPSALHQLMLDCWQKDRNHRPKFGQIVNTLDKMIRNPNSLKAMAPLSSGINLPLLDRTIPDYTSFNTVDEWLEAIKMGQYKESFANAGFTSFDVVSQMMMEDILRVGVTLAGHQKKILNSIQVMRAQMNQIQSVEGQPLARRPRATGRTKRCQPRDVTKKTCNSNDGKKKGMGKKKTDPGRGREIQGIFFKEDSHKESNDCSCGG

Row | Sequence | phosphorylation enrichment
59 | ILTFKYLQKPM [KIT_Y547_YF] | 0.759
60 | MSSLFYANTLF [HOXB7_Y6_YF] | 0.834
61 | KKRSSYGNSSD [SELENOK_Y52_R50S] | 0.462
62 | KLIETYSSKNF [PLP1_Y50_F51S_YF] | 0.618
63 | SHSMRYFFTAV [HLA-C_Y31_D33F] | 0.626
64 | ELELLYLDRNS [NYX_Y284] | 0.519
65 | IIGNGYYFRVF [MYBPC3_Y1135] | 0.619
66 | PQGVGYPPQPQ [EP300_Y2219_Q2223P] | 0.53
67 | LTDLRYKVSGP | 0.957
68 | KTDVHYRSLGG [DYSF_Y1858] | 0.371
69 | GGQVFYNSEFG [FLT4_Y1333_YF] | 0.617
70 | VDFQPYRKHKF [TEX37_Y28_YF] | 0.32
71 | SLIDGYYRLTA [JAK2_Y372] | 0.495
72 | DVVKDYAFVHM [RBM14_Y114] | 5.38
73 | NDEDIYKGLPD [VAV3_Y141] | 0.674
74 | TLQNMYGCDVG [HLA-B_Y123_S121N] | 0.581
75 | FENGEYIIRQG [PRKG1_Y247_YF] | 0.464
76 | QAIDEYEKWLE [MAP9_Y603_N601D] | 0.716
77 | ERWLKYFPNEQ [HS3ST5_Y244_I247N] | 0.584
78 | MDNQEYKDAYT [BRDT_Y331_K336T] | 0.796
79 | HRERPYGGGGG [FUS_Y526_R521H] | 0.265
80 | AVAFLYYKSIG [ADGRL4_Y301_V300L] | 0.54
81 | SWDKRYCEAGC [ITGA2B_Y197_F202C] | 0.41
82 | RLAKRYLIWEC [SCN5A_Y694_Q692K] | 0.604
83 | YRIDHYLGKEM [G6PD_Y202] | 0.627
84 | SVAVPYEPPEV [TP53_Y220_V217A] | 0.626
85 | ALAHEYHGGGG [HBB_Y146_K145E] | 0.314
86 | SSVPDYLAAVD [GLB1_Y154_D151V] | 0.683
87 | PFFTSYPPSPD [GDAP2_Y491_YF] | 0.447

target: FGFR1 (UniProt P11362); assay: as above
Sequence (P11362 whole entry, looked up): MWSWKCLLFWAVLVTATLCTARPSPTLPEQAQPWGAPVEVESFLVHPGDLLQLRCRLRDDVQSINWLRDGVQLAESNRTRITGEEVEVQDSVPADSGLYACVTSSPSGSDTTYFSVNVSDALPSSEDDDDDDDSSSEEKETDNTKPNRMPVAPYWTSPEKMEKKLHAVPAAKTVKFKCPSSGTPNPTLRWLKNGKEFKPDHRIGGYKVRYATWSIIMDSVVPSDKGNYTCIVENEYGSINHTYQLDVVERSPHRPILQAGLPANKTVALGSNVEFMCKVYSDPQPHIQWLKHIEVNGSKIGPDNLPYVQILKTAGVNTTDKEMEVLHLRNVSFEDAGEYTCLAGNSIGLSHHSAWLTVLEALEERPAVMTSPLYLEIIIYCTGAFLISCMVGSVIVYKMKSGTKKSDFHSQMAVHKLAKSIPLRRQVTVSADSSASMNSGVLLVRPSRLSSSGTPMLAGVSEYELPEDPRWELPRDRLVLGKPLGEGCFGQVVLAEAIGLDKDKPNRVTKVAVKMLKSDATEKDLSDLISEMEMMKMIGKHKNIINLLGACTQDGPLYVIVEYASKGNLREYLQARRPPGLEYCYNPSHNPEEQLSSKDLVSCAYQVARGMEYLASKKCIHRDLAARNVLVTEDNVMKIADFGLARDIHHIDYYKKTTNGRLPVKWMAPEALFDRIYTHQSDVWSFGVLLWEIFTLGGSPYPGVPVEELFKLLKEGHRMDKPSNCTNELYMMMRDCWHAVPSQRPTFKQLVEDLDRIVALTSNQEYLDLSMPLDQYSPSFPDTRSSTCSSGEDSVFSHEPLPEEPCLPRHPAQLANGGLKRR

Row | Sequence | phosphorylation enrichment
88 | ILTFKYLQKPM [KIT_Y547_YF] | 0.485
89 | MSSLFYANTLF [HOXB7_Y6_YF] | 0.656
90 | KKRSSYGNSSD [SELENOK_Y52_R50S] | 0.386
91 | KLIETYSSKNF [PLP1_Y50_F51S_YF] | 0.446
92 | SHSMRYFFTAV [HLA-C_Y31_D33F] | 0.62
93 | ELELLYLDRNS [NYX_Y284] | 0.493
94 | IIGNGYYFRVF [MYBPC3_Y1135] | 0.374
95 | PQGVGYPPQPQ [EP300_Y2219_Q2223P] | 0.695
96 | LTDLRYKVSGP | 0.43
97 | KTDVHYRSLGG [DYSF_Y1858] | 0.334
98 | GGQVFYNSEFG [FLT4_Y1333_YF] | 0.551
99 | VDFQPYRKHKF [TEX37_Y28_YF] | 0.401
100 | SLIDGYYRLTA [JAK2_Y372] | 2.49
101 | DVVKDYAFVHM [RBM14_Y114] | 3.87
102 | NDEDIYKGLPD [VAV3_Y141] | 0.584
103 | TLQNMYGCDVG [HLA-B_Y123_S121N] | 0.545
104 | FENGEYIIRQG [PRKG1_Y247_YF] | 0.499
105 | QAIDEYEKWLE [MAP9_Y603_N601D] | 0.515
106 | ERWLKYFPNEQ [HS3ST5_Y244_I247N] | 0.438
107 | MDNQEYKDAYT [BRDT_Y331_K336T] | 0.667
108 | HRERPYGGGGG [FUS_Y526_R521H] | 0.553
109 | AVAFLYYKSIG [ADGRL4_Y301_V300L] | 0.566
110 | SWDKRYCEAGC [ITGA2B_Y197_F202C] | 0.507
111 | RLAKRYLIWEC [SCN5A_Y694_Q692K] | 0.64
112 | YRIDHYLGKEM [G6PD_Y202] | 0.57
113 | SVAVPYEPPEV [TP53_Y220_V217A] | 0.595
114 | ALAHEYHGGGG [HBB_Y146_K145E] | 0.41
115 | SSVPDYLAAVD [GLB1_Y154_D151V] | 0.534
116 | PFFTSYPPSPD [GDAP2_Y491_YF] | 0.557
